Experimental data: patent US20240301041A1 (Regeneron, published 2024)

Key:
[1] = biological target: T1, Protein A on the surface of S. aureus Newman wild-type (Staphylococcus aureus (strain Newman), UniProt P38507 37-477); assay: cell-based or functional assay
[2] = biological target: T2, IgG binding protein (Protein A homolog SpsQ/SpsP) on S. intermedius 27369 (Staphylococcus intermedius); assay: cell-based or functional assay
[3] = biological target: T3, IgG binding protein (Protein A homolog SpsQ/SpsP) on S. pseudintermedius AHDRCC 98200 (Staphylococcus pseudintermedius); assay: cell-based or functional assay
[4] = biological target: T1, Protein A on the surface of S. aureus …; assay: ELISA, coated S. aureus Newman, antibody 1.18E-12 M
[5] = biological target: T1, Protein A on the surface of S. aureus …; assay: ELISA, coated S. aureus Newman, antibody 3.86E-08 M
[6] = biological target: T1, Protein A on the surface of S. aureus …; assay: ELISA, coated S. aureus Newman, antibody 4.82E-09 M
[7] = biological target: T1, Protein A on the surface of S. aureus …; assay: ELISA, coated S. aureus Newman, antibody 9.42E-12 M
[8] = biological target: T2, IgG binding protein (Protein A homolog …); assay: ELISA, coated S. intermedius 27369, antibody 3.09E-07 M
[9] = biological target: T2, IgG binding protein (Protein A homolog …); assay: ELISA, coated S. intermedius 27369, antibody 3.86E-08 M
[10] = biological target: T2, IgG binding protein (Protein A homolog …); assay: ELISA, coated S. intermedius 27369, antibody 9.42E-12 M
[11] = biological target: T1, Protein A on the surface of S. aureus …; assay: ELISA on plate-coated S. aureus Newman WT (grown in TSB)
[12] = biological target: T4, IgG binding protein (Protein A homolog SpsQ/SpsP) on MRSP S. pseudintermedius 88493 (Staphylococcus pseudintermedius); assay: ELISA, coated S. pseudintermedius 88493, antibody 3.09E-07 M
T4 construct: whole, on cells; also called MRSP Staphylococcus pseudintermedius 88493 (methicillin-resistant)

[13] = biological target: T4, IgG binding protein (Protein A homolog …); assay: ELISA, coated S. pseudintermedius 88493, antibody 3.86E-08 M
[14] = biological target: T4, IgG binding protein (Protein A homolog …); assay: ELISA, coated S. pseudintermedius 88493, antibody 4.82E-09 M
[15] = biological target: T4, IgG binding protein (Protein A homolog …); assay: ELISA, coated S. pseudintermedius 88493, antibody 6.03E-10 M
[16] = biological target: T4, IgG binding protein (Protein A homolog …); assay: ELISA, coated S. pseudintermedius 88493, antibody 7.54E-11 M
[17] = biological target: T4, IgG binding protein (Protein A homolog …); assay: ELISA, coated S. pseudintermedius 88493, antibody 9.42E-12 M
[18] = biological target: T3, IgG binding protein (Protein A homolog …); assay: ELISA, coated S. pseudintermedius 98200, antibody 1.18E-12 M
[19] = biological target: T3, IgG binding protein (Protein A homolog …); assay: ELISA, coated S. pseudintermedius 98200, antibody 1.47E-13 M
[20] = biological target: T3, IgG binding protein (Protein A homolog …); assay: ELISA, coated S. pseudintermedius 98200, antibody 3.86E-08 M
[21] = biological target: T3, IgG binding protein (Protein A homolog …); assay: ELISA, coated S. pseudintermedius 98200, antibody 4.82E-09 M
[22] = biological target: T3, IgG binding protein (Protein A homolog …); assay: ELISA, coated S. pseudintermedius 98200, antibody 7.54E-11 M
[23] = biological target: T1, Protein A on the surface of S. aureus …; assay: flow cytometry; blocking antibody 10 ug/mL, then Alexa-488 Fc fragment (competitor) on wild-type S. aureus
[24] = biological target: T1, Protein A on the surface of S. aureus …; assay: flow cytometry; blocking antibody 10 ug/mL, then Alexa-488 VH3 hIgG1*/* antibody (competitor) on wild-type S. aureus

B1: H1xH15140P*/* (anti-Protein A) (antibody, V domains shown)
VH: EVQLVESGGGLVQPGGSLTLSCTASGFSFSSYVMSWVRQSPGKGLEWVSAIGGSGTSTYYRDSVKGRFTISRDNSKNTLNLQMSSLRAEDTAVYYCARDGLGHRDYWGQGTLVTVSS
VL: DIQMTQSPSSVSASVGDRVTITCRASQGINSWLAWYQQKPGKAPKLLIYAASSLQSGVPSRFSGSGSGTDFTLTISSLQPEDFATYYCQQANSFPFTFGPGTKVDIK
notes: also called anti-Protein A hIgG1*/*; H1xH15140P*/*-L1
For B1, the “median cfu/mL after 16 h in 50% normal human serum, mAb 10 ug/mL” value [1] was 4.3e+06 cfu/mL, the “median cfu/mL after 16 h in 50% normal human serum, mAb 30 ug/mL” value [1] was 1e+06 cfu/mL and the “median cfu/mL after 16 h in 50% normal human serum, mAb 90 ug/mL” value [1] was 600000 cfu/mL. For the same binder, the “median cfu/mL after 16 h in 50% normal human serum, mAb 270 ug/mL” value [1] was 180000 cfu/mL, the “median cfu/mL after 16 h in 50% normal human serum, mAb 10 ug/mL” value [2] was 6e+06 cfu/mL and the “median cfu/mL after 16 h in 50% normal human serum, mAb 30 ug/mL” value [2] was 8.3e+06 cfu/mL. The “median cfu/mL after 16 h in 50% normal human serum, mAb 90 ug/mL” value [2] was 8.5e+06 cfu/mL, the “median cfu/mL after 16 h in 50% normal human serum, mAb 270 ug/mL” value [2] was 3.8e+06 cfu/mL and the “median cfu/mL after 16 h in 50% normal human serum, mAb 10 ug/mL” value [3] was 7.3e+06 cfu/mL. For the same binder, the “median cfu/mL after 16 h in 50% normal human serum, mAb 30 ug/mL” value [3] was 6.8e+06 cfu/mL, the “median cfu/mL after 16 h in 50% normal human serum, mAb 90 ug/mL” value [3] was 6.8e+06 cfu/mL and the “median cfu/mL after 16 h in 50% normal human serum, mAb 270 ug/mL” value [3] was 4.5e+06 cfu/mL. It also gave an ELISA luminescent signal [4] of 28400, an ELISA luminescent signal [5] of 838000 and an ELISA luminescent signal [6] of 828000. It also gave an ELISA luminescent signal [7] of 60500, an ELISA luminescent signal [8] of 21000 and an ELISA luminescent signal [9] of 8310. For the same binder, the ELISA luminescent signal [10] was 1520, the EC50 [11] was 0.0906 nM and the ELISA luminescent signal [12] was 10700. It also gave an ELISA luminescent signal [13] of 6360, an ELISA luminescent signal [14] of 5970 and an ELISA luminescent signal [15] of 10000. The ELISA luminescent signal [16] was 5410, the ELISA luminescent signal [17] was 4270 and the ELISA luminescent signal [18] was 5020. It also gave an ELISA luminescent signal [19] of 3940, an ELISA luminescent signal [20] of 6680 and an ELISA luminescent signal [21] of 3400. The ELISA luminescent signal [22] was 4680, the “Fc: S. aureus blocking activity (%)” value [23] was 97% and the “VH3 antibody: S. aureus blocking activity (%)” value [24] was 84.7%.
